This series deals with T1, recombinant human SSAO (Homo sapiens, UniProt Q16853).
T1 construct: expressed in transfected cells; cell lysate
T1 sequence (Q16853 1-763): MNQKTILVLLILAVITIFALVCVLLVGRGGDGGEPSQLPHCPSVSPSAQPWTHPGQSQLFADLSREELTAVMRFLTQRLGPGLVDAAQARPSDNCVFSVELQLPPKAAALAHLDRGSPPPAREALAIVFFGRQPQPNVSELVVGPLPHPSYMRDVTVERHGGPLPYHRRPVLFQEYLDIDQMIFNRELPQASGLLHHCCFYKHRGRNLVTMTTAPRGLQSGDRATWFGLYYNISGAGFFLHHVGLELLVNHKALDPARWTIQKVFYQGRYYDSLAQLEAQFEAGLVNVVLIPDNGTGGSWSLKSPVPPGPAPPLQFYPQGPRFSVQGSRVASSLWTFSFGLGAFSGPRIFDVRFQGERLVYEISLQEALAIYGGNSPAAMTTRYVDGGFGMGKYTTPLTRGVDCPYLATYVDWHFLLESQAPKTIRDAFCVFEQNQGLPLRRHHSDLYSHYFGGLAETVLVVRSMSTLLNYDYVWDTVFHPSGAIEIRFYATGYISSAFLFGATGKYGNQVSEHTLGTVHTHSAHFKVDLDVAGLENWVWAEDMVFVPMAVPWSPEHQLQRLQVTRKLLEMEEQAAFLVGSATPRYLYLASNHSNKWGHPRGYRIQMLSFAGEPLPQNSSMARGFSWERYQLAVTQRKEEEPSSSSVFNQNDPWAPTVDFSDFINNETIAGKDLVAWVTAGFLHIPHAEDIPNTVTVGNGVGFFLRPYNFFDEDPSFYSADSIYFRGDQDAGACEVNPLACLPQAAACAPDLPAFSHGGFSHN
Description: Amplex Red assay of specific activity of recombinant human SSAO. Format: biochemical. The text has this:
The Amplex Red assay (a commercially available assay), was used initially to measure the specific activity of the recombinant human SSAO. Amplex Red is a colorless and nonfluorescent derivative of dihydroresorufin. In the presence of amine oxidases and SSAO, the Amplex Red reacts with H2O2 to produce the highly fluorescent product, resorufin. Resorufin has an excitation maximum at 563 nm and emission maximum at 587 nm and the assay can be quantified by reading the microtitre plate at 587 nm. The specific activity of recombinant SSAO was determined to be 280 pmol/min/mg protein and this was determined to be equivalent to the specific activity of SSAO found in human lung tissue. For subsequent assays to profile compounds in the LC/MS/MS assay, recombinant human SSAO (rhSSAO) was used at this defined specific activity.

B1: recombinant SSAO: recombinant human SSAO, full-length untagged, in CHO Flp-In cell lysate (protein, UniProt Q16853 1-763, looked up)
chain: MNQKTILVLLILAVITIFALVCVLLVGRGGDGGEPSQLPHCPSVSPSAQPWTHPGQSQLFADLSREELTAVMRFLTQRLGPGLVDAAQARPSDNCVFSVELQLPPKAAALAHLDRGSPPPAREALAIVFFGRQPQPNVSELVVGPLPHPSYMRDVTVERHGGPLPYHRRPVLFQEYLDIDQMIFNRELPQASGLLHHCCFYKHRGRNLVTMTTAPRGLQSGDRATWFGLYYNISGAGFFLHHVGLELLVNHKALDPARWTIQKVFYQGRYYDSLAQLEAQFEAGLVNVVLIPDNGTGGSWSLKSPVPPGPAPPLQFYPQGPRFSVQGSRVASSLWTFSFGLGAFSGPRIFDVRFQGERLVYEISLQEALAIYGGNSPAAMTTRYVDGGFGMGKYTTPLTRGVDCPYLATYVDWHFLLESQAPKTIRDAFCVFEQNQGLPLRRHHSDLYSHYFGGLAETVLVVRSMSTLLNYDYVWDTVFHPSGAIEIRFYATGYISSAFLFGATGKYGNQVSEHTLGTVHTHSAHFKVDLDVAGLENWVWAEDMVFVPMAVPWSPEHQLQRLQVTRKLLEMEEQAAFLVGSATPRYLYLASNHSNKWGHPRGYRIQMLSFAGEPLPQNSSMARGFSWERYQLAVTQRKEEEPSSSSVFNQNDPWAPTVDFSDFINNETIAGKDLVAWVTAGFLHIPHAEDIPNTVTVGNGVGFFLRPYNFFDEDPSFYSADSIYFRGDQDAGACEVNPLACLPQAAACAPDLPAFSHGGFSHN
modifications: full-length
notes: recombinant human SSAO, full-length untagged, in CHO Flp-In cell lysate
Turning to B1, the “specific activity of recombinant SSAO” value was determined as 280 pmol/min/mg protein.

Source of the values: US8883410B2, “Method for determining the stability of organic methyleneamines in the presence of semicarbazide-sensitive amine oxidase” (Sanofi, priority 2007, dated 2014).
